We go through 1 protein from patent publication US20040006777.

The target of the data set is Raytide (synthetic peptide substrate).

B1: T7 tagged Lyp1 (protein)
chain: MDQREILQKFLDEAQSKKITKEEFANEFLKLKRQSTKYKADKTYPTTVAENAKNIKKNRYKDILPYDYSRVELSLITSDEDSSYINANFIKGVYGPKAYIATQGPLSTTLLDFWRMIWEYSVLIIVMACMEYEMGKKKCERYWAEPGEMQLEFGPFSVSCEAEKRKSDYIIRTLKVKFNSETRTIYQFHYKNWPDHDVPSSIDPILELIWDVRCYQEDDSVPICIHCSAGCGRTGVICAIVDYTWMLLKDGIIPENFSVFSLIREMRTQRPSLVQTQEQYELVYNAVLELFKRQMDVIRDKHSGTESQAKHCIPEKNHTLQADSYSPNLPKSTTKAAKMMNQQRTKMEIKESSSFDFRTSEISAKEELVLHPAKSSTSFDFLELNYSFDKNADTTMKWQTKAFPIVGEPLQKHQSLDLGSLLFEGCSNSKPVNAAGRYFNSKVPITRTKSTPFELIQQRETKEVDSKENFSYLESQPHDSCFVEMQAQKVMHVSSAELNYSLPYDSKHQIRNASNVKHHDSSALGVYSYIPLVENPYFSSWPPSGTSSKMSLDLPEKQDGTVFPSSLLPTSSTSLFSYYNSHSSLSLNSPTNISSLLNQESAVLATAPRIDDEIPPPLPVRTPESFIVVEEAGEFSPNVPKSLSSAVKVKIGTSLEWGGTSEPKKFDDSVILRPSKSVKLRSPKSELHQDRSSPPPPLPERTLESFFLADEDCMQAQSIETYSTSYPDTMENSTSSKQTLKTPGKSFTRSKSLKILRNMKKSICNSCPPNKPAESVQSNNSSSFLNFGFANRFSKPKGPRNPPPTWNI
For B1, the “33P release from labelled Raytide, in vitro phosphatase assay with immunoprecipitates” value is “a seven fold increase in ^33P release from the substrate incubated with Lyp immunoprecipitates compared to control immunoprecipitates”.
